The term stoichiometry N denotes a count of units in the complex or per binding partner.

The data set deals with the molecule itself. In words: cryo-EM structure.

B1: E. coli ClpP-His6 (tetradecamer) (enzyme)
chain: not shown
With B1, the “stoichiometry N” value amounted to 14.
